Experimental data taken from US20240101675A1 (BIOLOJIC DESIGN, published 2024).

T1: recombinant human OX40 tagged with histidine tag (hOX40-His) (human, UniProt P43489 29-216)
T1 construct: bought (Reprokine); also called hOX-His; not shown: histidine tag
T1 sequence (looked up): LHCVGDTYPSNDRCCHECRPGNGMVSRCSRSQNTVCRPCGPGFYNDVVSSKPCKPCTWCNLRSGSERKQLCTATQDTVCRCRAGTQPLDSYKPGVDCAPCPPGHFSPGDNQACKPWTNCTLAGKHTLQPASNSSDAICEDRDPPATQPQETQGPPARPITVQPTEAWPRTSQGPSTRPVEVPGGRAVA


Tests used:
[1] = target: T1, recombinant human OX40 tagged with …; experiment: yeast surface display scFv, flow cytometry, 90 nM hOX40-His
[2] = target: T2, recombinant human TSLP (hTSLP)-Fc (human, UniProt Q969D9 29-159, limits assumed); experiment: yeast surface display flow cytometry, 10 nM hTSLP-Fc; MFI normalized to expression and to the positive control
T2 construct: used for yeast surface display labelling; also called rhTSLP; not shown: Fc

Binder | binding result [1] | binding result [2]
3212ACOXC14 (OX40 library) (scFv, V domains shown, not shown: linker) VH: QVQLVESGGGVVQPGRSLRLDCKASGIEFSNSGMHWVRQAPGKGLEWVAVIWYDGSKRYYADSVKGRFTISRDNSKNTLFLQMNSLRAEDTAVYYCATNDDYWGQGTLVTVSS VL: EIVLTQSPATLSLSPGERATLSCRASQSVEHYLAWYQQKPGQAPRLLIYDASNRATGIPARFSGSGSGTDFTLTISSLEPEDFAVYYCQQYSNWPLTFGQGTKVEIK | binds | –
3212ACOXC10 (OX40 library) (scFv, V domains shown, not shown: linker) VH: QVQLVESGGGVVQPGRSLRLDCKASGIDFSNSGMHWVRQAPGKGLEWVAVIWYDGSKRLYADSVKGRFTISRDNSKNTLFLQMNSLRAEDTAVYYCASNDDYWGQGTLVTVSS VL: EIVLTQSPATLSLSPGERATLSCRASQSVIHYLAWYQQKPGQAPRLLIYDASNRATGIPARFSGSGSGTDFTLTISSLEPEDFAVYYCQQYDNWPLTFGQGTKVEIK | binds | –
3212ACOXC21 (OX40 library) (scFv, V domains shown, not shown: linker) VH: QVQLVESGGGVVQPGRSLRLDCKASGIEFSNSGMHWVRQAPGKGLEWVAVIWYDGSKRYYADSVKGRFTISRDNSKNTLFLQMNSLRAEDTAVYYCASNDDYWGQGTLVTVSS VL: EIVLTQSPATLSLSPGERATLSCRASQSVDHYLAWYQQKPGQAPRLLIYDASNFATGIPARFSGSGSGTDFTLTISSLEPEDFAVYYCQQYSNWPLTFGQGTKVEIK | binds | –
3212ACOXC31 (OX40 library) (scFv, V domains shown, not shown: linker) VH: QVQLVESGGGVVQPGRSLRLDCKASGITFSNSGMHWVRQAPGKGLEWVAVIWYDGSKAYYADSVKGRFTISRDNSKNTLFLQMNSLRAEDTAVYYCATNDDYWGQGTLVTVSS VL: EIVLTQSPATLSLSPGERATLSCRASQSVYHYLAWYQQKPGQAPRLLIYDAENRATGIPARFSGSGSGTDFTLTISSLEPEDFAVYYCQQYNDWPLTFGQGTKVEIK | binds | –
C13 (scFv, V domains shown, also called C13-VH-L-VL) VH: QMQLVESGGGVVQPGRSLRLSCAASGFTFRTYGMHWVRQAPGKGLEWVAVIWYDGSNKHYADSVKGRFTITRDNSKNTLNLQMNSLRAEDTAVYYCARAPQWELVAEAFDLWGQGTMVTVSS VL: SYVLTQPPSVSVAPGQTARITCGGNLLGSKLVHWYQQKPGQAPVLVVYDDGDRPSLIPERFSGSNSGNTATLTISRVEAGDEADYYCQVWDTSSDHVVFGGGTKLTVL | – | binds
C15 (scFv, V domains shown, also called C15-VH-L-VL) VH: QMQLVESGGGVVQPGRSLRLSCAASGFTFRTYGMHWVRQAPGKGLEWVAVIWYDGSNKHYADSVKGRFTITRDNSKNTLNLQMNSLRAEDTAVYYCARAPQWELVAEAFDLWGQGTMVTVSS VL: SYVLTQPPSVSVAPGQTARITCGGNLIGSKLVHWYQQKPGQAPVLVVYDDGDRPSWIPERFSGSNSGNTATLTISRVEAGDEADYYCQVWDSGSDGVVFGGGTKLTVL | – | binds
C17 (scFv, V domains shown, also called C17-VH-L-VL) VH: QMQLVESGGGVVQPGRSLRLSCAASGFTFRTYGMHWVRQAPGKGLEWVAVIWYDGSNKHYADSVKGRFTITRDNSKNTLNLQMNSLRAEDTAVYYCARAPQWELTSEAFDLWGQGTMVTVSS VL: SYVLTQPPSVSVAPGQTARITCGGNLIGSKLVHWYQQKPGQAPVLVVYDDSDRPSAIPERFSGSNSGNTATLTISRVEAGDEADYYCQVWDTSSDHVVFGGGTKLTVL | – | binds
C45 (scFv, V domains shown, also called C45-VH-L-VL) VH: QMQLVESGGGVVQPGRSLRLSCAASGFTFRTYGMHWVRQAPGKGLEWVAVIWYDGSNKHYADSVKGRFTITRDNSKNTLNLQMNSLRAEDTAVYYCARAPQWELTSEAFDLWGQGTMVTVSS VL: SYVLTQPPSVSVAPGQTARITCGGNLIGSKLVHWYQQKPGQAPVLVVYDDSDRPSEIPERFSGSNSGNTATLTISRVEAGDEADYYCQVWDSSSDGVVFGGGTKLTVL | – | binds
